Assay results from publication PMC10978497, “The GTPase activating protein Gyp7 regulates Rab7/Ypt7 activity on late endosomes” (The Journal of Cell Biology, 2024).

Target: T1, guanine nucleotide dissociation inhibitor (GDI) (yeast, UniProt P39958 1-451)
T1 construct: expressed as GST-PreSc-GDI; also called Gdi1; source: E. coli BL21 DE3 (Rosetta), purified (glutathione sepharose, cleaved from the beads with PreScission protease); not shown: GST, N-terminal, cleaved
T1 sequence (looked up): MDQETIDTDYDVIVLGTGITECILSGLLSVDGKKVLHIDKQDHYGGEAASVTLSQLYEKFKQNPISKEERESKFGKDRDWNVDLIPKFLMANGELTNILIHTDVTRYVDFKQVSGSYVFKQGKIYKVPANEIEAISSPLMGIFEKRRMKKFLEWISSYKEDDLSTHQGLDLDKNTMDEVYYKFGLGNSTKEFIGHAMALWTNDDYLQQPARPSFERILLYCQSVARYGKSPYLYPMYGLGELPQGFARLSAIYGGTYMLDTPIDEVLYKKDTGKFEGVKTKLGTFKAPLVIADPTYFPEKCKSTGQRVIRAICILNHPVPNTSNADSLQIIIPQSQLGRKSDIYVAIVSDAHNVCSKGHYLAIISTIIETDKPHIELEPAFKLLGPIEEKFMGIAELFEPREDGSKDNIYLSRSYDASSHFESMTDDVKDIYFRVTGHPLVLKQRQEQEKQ
Assay: SEC; after in vitro prenylation (Rab GTPase, GDI, His6-Mrs6, Bet4 His6-TEV-Bet2 at 10:9:1:1, 37°C, 1.5 h) and removal of His6-Mrs6 and Bet4 His6-TEV-Bet2 on Ni2+ resin, the supernatant was loaded on a Superdex200 increase column; prenylation buffer 50 mM HEPES-NaOH pH 7.4, 150 mM NaCl, 1.5 mM MgCl2, 1 mM DTT
Details: both partners purified

B1: prenylated Ypt7 (natural protein, yeast, UniProt P32939 1-208, looked up)
chain: MSSRKKNILKVIILGDSGVGKTSLMHRYVNDKYSQQYKATIGADFLTKEVTVDGDKVATMQVWDTAGQERFQSLGVAFYRGADCCVLVYDVTNASSFENIKSWRDEFLVHANVNSPETFPFVILGNKIDAEESKKIVSEKSAQELAKSLGDIPLFLTSAKNAINVDTAFEEIARSALQQNQADTEAFEDDYNDAINIRLDGENNSCSC
modifications: prenylated in vitro with geranylgeranyl pyrophosphate (C-terminal prenyl anchor; positions not stated)
notes: Ypt7, the Rab7-like GTPase of yeast; The methods list GST-TEV-Ypt7 (cleaved off the beads with TEV protease), Ypt7-His6 and, once, His6-TEV-Ypt7; I surmise that the prenylated Ypt7 came from GST-TEV-Ypt7, because it has a free C-terminus; also called Rab7-like Ypt7; Ypt7-GDP; source: E. coli BL21 DE3 (Rosetta), purified; preloaded with GDP and prenylated in vitro (Mrs6, Bet4-Bet2, geranylgeranyl …)
- binding result: binds
